Measured values reported in US20250376519A1 (JIANGSU HENGRUI PHARMACEUTICALS, published 2025).

T1: human DLL3 on cells (human, UniProt Q9NYJ7 27-618)
T1 construct: Endogenous on H1184 and SHP77; Cell line is named under assay; also called H1184; DLL3/H82
T1 sequence: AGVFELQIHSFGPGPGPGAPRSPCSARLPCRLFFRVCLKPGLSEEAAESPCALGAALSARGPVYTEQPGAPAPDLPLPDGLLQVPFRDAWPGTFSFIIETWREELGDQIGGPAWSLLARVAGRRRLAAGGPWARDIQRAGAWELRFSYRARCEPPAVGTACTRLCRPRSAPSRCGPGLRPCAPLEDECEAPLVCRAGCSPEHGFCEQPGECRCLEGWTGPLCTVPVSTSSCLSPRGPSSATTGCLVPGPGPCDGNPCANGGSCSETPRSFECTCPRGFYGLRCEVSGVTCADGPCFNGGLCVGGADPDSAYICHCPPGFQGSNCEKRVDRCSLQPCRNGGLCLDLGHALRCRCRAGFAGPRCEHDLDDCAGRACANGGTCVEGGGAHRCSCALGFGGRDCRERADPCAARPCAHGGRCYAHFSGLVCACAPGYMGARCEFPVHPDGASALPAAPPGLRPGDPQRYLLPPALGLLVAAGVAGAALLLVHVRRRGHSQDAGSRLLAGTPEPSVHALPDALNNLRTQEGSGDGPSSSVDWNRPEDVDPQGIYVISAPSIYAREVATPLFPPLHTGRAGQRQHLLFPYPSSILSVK

T2: human DLL3 (ACRO, DLL3-H52H4) (human, UniProt Q9NYJ7 27-492)
T2 construct: Bought
T2 sequence: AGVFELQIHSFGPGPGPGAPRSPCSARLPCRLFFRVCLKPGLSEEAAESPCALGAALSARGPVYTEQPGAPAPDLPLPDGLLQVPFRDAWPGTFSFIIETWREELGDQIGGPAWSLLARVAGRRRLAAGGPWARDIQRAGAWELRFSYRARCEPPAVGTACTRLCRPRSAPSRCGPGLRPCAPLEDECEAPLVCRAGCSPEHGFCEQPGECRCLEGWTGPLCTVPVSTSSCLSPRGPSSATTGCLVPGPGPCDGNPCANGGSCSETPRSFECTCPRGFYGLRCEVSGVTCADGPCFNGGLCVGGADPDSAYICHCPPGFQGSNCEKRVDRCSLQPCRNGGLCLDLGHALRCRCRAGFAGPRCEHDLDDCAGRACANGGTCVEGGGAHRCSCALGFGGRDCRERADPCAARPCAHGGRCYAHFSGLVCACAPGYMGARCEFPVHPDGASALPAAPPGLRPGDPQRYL


Key:
[1] = target: T1, human DLL3 on cells; experiment: flow cytometry, SHP77 cells
Description: The plates were centrifuged at 300 g for 5 min, and the supernatant was removed. Different concentrations of test antibodies were added at 100 μL/well. The plates were incubated in the dark in a refrigerator at 4° C. for 1 h. After 3 centrifugal washes at 300 g, working concentrations of APC anti-human IgG Fc (BioLegend, 410712) or PE F(ab′)2-goat anti-human IgG (invitrogen, H10104) were added. The plates were incubated in the dark in a refrigerator at 4° C. for 40 min. After 3 centrifugal washes at 300 g, the geometric mean fluorescence intensity was measured on an Invitrogen flow cytometer, and the EC50 values for the binding of the antibodies to DLL3-expressing cells were calculated.

[2] = target: T2, human DLL3 (ACRO, DLL3-H52H4); experiment: SPR Biacore 8K, Ab captured on Protein A
Summary of the method: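 Antibodies captured on a Protein A chip for 18 s; DLL3 or CD3D&3E antigen flowed 180 s, then 600 s dissociation, with real-time detection. Regeneration used 10 mM glycine-HCl pH 1.5 between cycles. Kinetics were obtained by 1:1 model fitting.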

Binder | EC50 [1] [nM] | Emax [1] | Kd [2] [nM] | koff [2] [s⁻¹] | kon [2] [M⁻¹ s⁻¹]
hu30L4H5 (antibody, human IgG1, kappa, V domains shown) VH: EVRLVQSGAEVKKPGASVKVSCKASGYTFTDYYMNWVRQAPGQSLEWMGIINPYTGDTSYNQKFRGRVTLTVDKSASTAYMELSSLRSEDTAVYYCARYHYGPHLEGYFDVWGQGTTVTVSS VL: DIQMTQSPSSLSASVGDRVTITCKASENVGYVSWYQQKPGKAPKLLIYGASNRYTGVPSRFSGSGSGTDFTLTISSLQPEDFATYYCGQSYSYPLTFGQGTKLEIKR | 5.44 | 1460 | 2.09 | 0.00092 | 440000
hu30L4H9 (antibody, human IgG1, kappa, V domains shown) VH: EVRLVQSGAEVKKPGASVKVSCKASGYTFTDYYMNWVRQAPGQSLEWIGIINPYTGDTSYNQKFRGRATLTVDKSASTAYMELSSLRSEDTAVYYCARYHYGPHLEGYFDVWGQGTTVTVSS VL: DIQMTQSPSSLSASVGDRVTITCKASENVGYVSWYQQKPGKAPKLLIYGASNRYTGVPSRFSGSGSGTDFTLTISSLQPEDFATYYCGQSYSYPLTFGQGTKLEIKR | 9.94 | 1370 | 2.57 | 0.00101 | 392000
hu30L4H11 (antibody, human IgG1, kappa, V domains shown) VH: EVRLVQFGAVVKKPGASVKVSCKASGYTFTDYYMNWVRQAPGQSLEWMGIINPYTGDTSYNQKFRGRVTLTVDKSSSTAYMELSSLTSEDTAVYYCARYHYGPHLEGYFDVWGQGTTVTVSS VL: DIQMTQSPSSLSASVGDRVTITCKASENVGYVSWYQQKPGKAPKLLIYGASNRYTGVPSRFSGSGSGTDFTLTISSLQPEDFATYYCGQSYSYPLTFGQGTKLEIKR | 7.82 | 1520 | 2.84 | 0.00113 | 398000
hu30L1H10 (antibody, human IgG1, kappa, V domains shown) VH: EVRLVQSGAEVKKPGASVKVSCKASGYTFTDYYMNWVRQSHGQSLEWMGIINPYTGDTSYNQKFRGRVTLTVDKSASTAYMELSSLRSEDTAVYYCARYHYGPHLEGYFDVWGQGTTVTVSS VL: DIVMTQSPDSLAVSLGERATINCKASENVGYVSWYQQKPGQPPKLLIYGASNRYTGVPDRFSGSGSGTDFTLTISSLQAEDVAVYYCGQSYSYPLTFGQGTKLEIKR | 7.99 | 1630 | 2.19 | 0.000964 | 440000

More lines, in order of falling EC50 [1], values ahead:

EC50 [1] [nM] | Emax [1] | Kd [2] [nM] | koff [2] [s⁻¹] | kon [2] [M⁻¹ s⁻¹] | Binder
7.48 | 1610 | 1.98 | 0.000882 | 446000 | hu30L5H5 (antibody, human IgG1, kappa, V domains shown) VH: EVRLVQSGAEVKKPGASVKVSCKASGYTFTDYYMNWVRQAPGQSLEWMGIINPYTGDTSYNQKFRGRVTLTVDKSASTAYMELSSLRSEDTAVYYCARYHYGPHLEGYFDVWGQGTTVTVSS VL: DIQMTQSPSSLSASVGDRVTITCKASENVGYVSWYQQKPGKSPKLLIYGASNRYTGVPDRFSGSGSGTDFTLTISSLQPEDFATYYCGQSYSYPLTFGSGTKLEIKR
5.67 | 1380 | 2.57 | 0.00109 | 425000 | hu30L1H8 (antibody, human IgG1, kappa, V domains shown) VH: EVRLVQFGAVVKKPGASVKVSCKASGYTFTDYYMNWVRQAPGQSLEWMGIINPYTGDTSYNQKFRGRVTLTVDKSSSTAYMELSSLRSEDTAVYYCARYHYGPHLEGYFDVWGQGTTVTVSS VL: DIVMTQSPDSLAVSLGERATINCKASENVGYVSWYQQKPGQPPKLLIYGASNRYTGVPDRFSGSGSGTDFTLTISSLQAEDVAVYYCGQSYSYPLTFGQGTKLEIKR
5.3 | 1420 | 2.74 | 0.000942 | 343000 | hu30L4H8 (antibody, human IgG1, kappa, V domains shown) VH: EVRLVQFGAVVKKPGASVKVSCKASGYTFTDYYMNWVRQAPGQSLEWMGIINPYTGDTSYNQKFRGRVTLTVDKSSSTAYMELSSLRSEDTAVYYCARYHYGPHLEGYFDVWGQGTTVTVSS VL: DIQMTQSPSSLSASVGDRVTITCKASENVGYVSWYQQKPGKAPKLLIYGASNRYTGVPSRFSGSGSGTDFTLTISSLQPEDFATYYCGQSYSYPLTFGQGTKLEIKR
